The record followed here is patent US6673902B2, “Cyclin D binding factor, and uses thereof” (St. Jude Children's Research Hospital, priority 1996, dated 2004).

Holding throughout (format): cell-based, mouse
One assay concerns wild-type MEFs. The assay is described as follows: BrdU incorporation / cell cycle arrest in wild-type MEFs. As to conditions: retroviral infection. The procedure:
(§1) BrdU incorporation and immunofluorescence. Wild-type or ARF-null MEFs (4×10^4 cells) were seeded on gelatin-coated coverslips 16 hours before virus infection. Cells were infected three times with empty vector, or vectors expressing murine DMP1, human c-Myc, human E2F-1, or human Ets1. Cells were labeled 36 hours after virus infection with bromodeoxyuridine (BrdU, Sigma) for 14 hours in complete medium. For pulse labeling, MEFs were treated with 2 μM4-HT for 36 hours and labeled with BrdU for three hours at different intervals throughout the inductive phase. Cells were fixed in ice-cold methanol-acetone (1:1) for 10 min at −20° C. and then were stained with affinity-purified antibodies to DMP1 (AF) [Hirai and Sherr, Mol. Cell. […]
(§2) Based on the above observations, it was determined as to whether introduction of DMP1 would induce synthesis of the endogenous ARF protein in normal diploid fibroblast strains. […] Although the blot was normalized for protein input, the levels of p19^ARF induced by DMP1 were calculated to be 2-fold higher than those induced by Myc, because fewer cells were productively infected with the DMP1 virus in this experiment (see FIG. 15A).

The test system of assay [1] is 281 bp ARF promoter fragment. The assay can be described thus: Transactivation of ARF promoter-luciferase reporter in NIH-3T3 cells. As to conditions: NIH-3T3, 281 bp ARF promoter fragment-luciferase. The protocol:
Transactivation assays. NIH-3T3 cells were transfected with 4 μg of pGL2-ARFpro BamHI or its DMP1 binding site mutant, with or without increasing amount of pFLEX-DMP1, pEVRFO-Ets1, pCMV-Ets2, pRcRSV-Elfl, pdEB-Fli1, p(IEB-EWS-Fli1 or pCMV-E2F-1 (89-437), and 4 μg β-actin SEAP control vectors [Inoue and Sherr, Mol. Cell. Biol. 18: 1590-1600 (1998); Inoue et al., J. Biol. Chem. 273:29188-29194 (1998); Davis and Roussel, Gene 171:265-269 (1996); Baily et al., Mol. Cell. Biol. 14:3230-3241 (1994)]. Transfections and normalization of luciferase levels with internal control SEAP levels were performed as described [Inoue and Sherr, Mol. Cell. Biol. 18:1590-1600 (1998)].
Similarly, DMP1 deletion mutants defective in transactivation [Inoue and Sherr, Mol. Cell. […] Mutation of the DMP1 binding site within the ARF promoter [changing CCCGGATGC, (SEQ ID NO:33) to CCCGTCGAC, (SEQ ID NO:42)] also completely abolished transactivation by wild-type DMP1 (FIG. 14C, mutant reporter). Therefore, sequences within the −189 to −181 ARF promoter segment were the only ones responsible for DMP1-mediated transactivation. Although Ets1 could bind to a 23 base pair oligonucleotide containing the DMP1 consensus site (FIG. 14B), several Ets proteins were unable to induce significant reporter gene expression from the more complex 281 base pair ARF promoter (FIG. 14C). […]
For orientation: In a reporter assay the amount or activity of a reporter protein is the signal.

Another assay deals with ARF-null MEFs. The assay is described as follows: BrdU incorporation / cell cycle arrest in ARF-null MEFs. As to conditions: retroviral infection. The procedure:
as §1, §2

Assay [2] deals with DMP1-responsive promoter (pGL2BS2). The assay is described as follows: Transactivation of luciferase reporter plasmid under control of a DMP1-responsive promoter in NIH-3T3 fibroblasts. Particulars: Table 4; DMP1 coexpressed with the additive named as label (DMP1 row: no additive); vector without insert set to 1.0. An excerpt: Coexpression of a D-type cyclin with DMP1 overrides the ability of DMP1 to transactivate a luciferase gene under the control of an artificial DMP1-responsive promoter (Table 4), as well as the ability of DMP1 to inhibit cell growth.

B1: Ets1: Ets family transcription factor (protein, UniProt P27577 1-440, looked up)
Protein C-ets-1: MKAAVDLKPTLTIIKTEKVDLELFPSPDMECADVPLLTPSSKEMMSQALKATFSGFTKEQQRLGIPKDPRQWTETHVRDWVMWAVNEFSLKGVDFQKFCMSGAALCALGKECFLELAPDFVGDILWEHLEILQKEDVKPYQVNGANPTYPESCYTSDYFISYGIEHAQCVPPSEFSEPSFITESYQTLHPISSEELLSLKYENDYPSVILQDPLQTDTLQTDYFAIKQEVLTPDNMCLGRASRGKLGGQDSFESVESYDSCDRLTQSWSSQSSFNSLQRVPSYDSFDYEDYPAALPNHKPKGTFKDYVRDRADLNKDKPVIPAAALAGYTGSGPIQLWQFLLELLTDKSCQSFISWTGDGWEFKLSDPDEVARRWGKRKNKPKMNYEKLSRGLRYYYDKNIIHKTAGKRYVYRFVCDLQSLLGYTPEELHAMLDVKPDAD
As for B1, the cell cycle arrest entry in the assay on wild-type MEFs and in the assay with ARF-null MEFs was “behaved indistinguishably from those infected with the control vector” throughout. Also, the “ARF promoter reporter gene expression” value in assay [1] is listed as “slightly inhibitory”.

B2: cyclin H: cyclin coexpressed with DMP1 (protein, UniProt Q61458 1-323, looked up)
Cyclin-H: MYHSSSQKRHWTFASEEQLARLRADANRKFKCKAVANGKVLPNDPVFLEPHEELTLCKYYEKRLLEFCSVFKPAMPRSVVGTACMYFKRFYLNNSVMEYHPRIIMLTCAFLACKVDEFNVSSPQFVGNLRESPLGQERALEQILEYELLLIQQLNFHLIVHNPYRPFEGFLIDIKTRYPMLENPEILRKTADDFLSRIALTDAYLLYTPSQIALTAILSSASRAGITMESYLSESLMLKENRTCLSQLLDIMKSMRNLVKKYEPPRSDEVAVLKQKLERCHSSDLALNAVTKKRKGYEDDDYVSKKPKQEEEEWTDDDLVDSL
As to B2, the “Luciferase Activity” value in assay [2] is listed as 5.5.
